# B1: mouse EpCAM (other)
# chain: QRDCVCDNYKLATSCSLNEYGECQCTSYGTQNTVICSKLASKCLAMKAEMTHSKSGRRIKPEGAIQNNDGLYDPDCDEQGLFKAKQCNGTATCWCVNTAGVRRTDKDTEITCSERVRTYWIIIELKHKERESPYDHQSLQTALQEAFTSRYKLNQKFIKNIMYENNVITIDLMQNSSQKTQDDVDIADVAYYFEKDVKGESLFHSSKSMDLRVNGEPLDLDPGQTLIYYVDEKAPEFSMQGLT
# modifications: biotinylated
# notes: also called muEpCAM (biotinylated version of mouse EpCAM antigen)
# Tests used:
# [1] = target: T1, EpCAM H13 Mask27 L040 (EpCAM targeting ProTriTAC with H13); experiment: binding assay, affinity summary
# T1 construct: trispecific prodrug: masked anti-albumin sdAb-cleavable linker L040-anti-CD3 scFv-anti-EpCAM sdAb H13-His6; also called H13 ProTriTAC (L040)
# T1 sequence (chain, as listed by the source): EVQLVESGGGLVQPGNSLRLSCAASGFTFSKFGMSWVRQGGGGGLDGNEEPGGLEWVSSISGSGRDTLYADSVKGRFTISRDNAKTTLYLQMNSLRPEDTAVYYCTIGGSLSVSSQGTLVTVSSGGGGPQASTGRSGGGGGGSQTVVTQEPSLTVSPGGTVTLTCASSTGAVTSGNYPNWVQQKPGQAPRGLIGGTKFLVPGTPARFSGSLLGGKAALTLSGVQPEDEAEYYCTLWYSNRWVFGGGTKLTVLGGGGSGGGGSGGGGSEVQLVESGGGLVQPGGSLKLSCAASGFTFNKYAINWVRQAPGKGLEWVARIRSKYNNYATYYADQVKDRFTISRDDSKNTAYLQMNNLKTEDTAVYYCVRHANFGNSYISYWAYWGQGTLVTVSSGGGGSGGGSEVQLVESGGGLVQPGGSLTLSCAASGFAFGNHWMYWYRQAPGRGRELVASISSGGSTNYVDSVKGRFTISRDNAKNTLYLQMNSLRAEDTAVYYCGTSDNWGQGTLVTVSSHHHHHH
# [2] = target: T2, EpCAM H90 Mask27 L040 (EpCAM targeting ProTriTAC with H90); experiment: binding assay with kinetics, affinity summary (instrument not stated)
# T2 construct: trispecific prodrug: masked anti-albumin sdAb-L040-anti-CD3 scFv-anti-EpCAM sdAb H90-His6
# T2 sequence (chain, as listed by the source): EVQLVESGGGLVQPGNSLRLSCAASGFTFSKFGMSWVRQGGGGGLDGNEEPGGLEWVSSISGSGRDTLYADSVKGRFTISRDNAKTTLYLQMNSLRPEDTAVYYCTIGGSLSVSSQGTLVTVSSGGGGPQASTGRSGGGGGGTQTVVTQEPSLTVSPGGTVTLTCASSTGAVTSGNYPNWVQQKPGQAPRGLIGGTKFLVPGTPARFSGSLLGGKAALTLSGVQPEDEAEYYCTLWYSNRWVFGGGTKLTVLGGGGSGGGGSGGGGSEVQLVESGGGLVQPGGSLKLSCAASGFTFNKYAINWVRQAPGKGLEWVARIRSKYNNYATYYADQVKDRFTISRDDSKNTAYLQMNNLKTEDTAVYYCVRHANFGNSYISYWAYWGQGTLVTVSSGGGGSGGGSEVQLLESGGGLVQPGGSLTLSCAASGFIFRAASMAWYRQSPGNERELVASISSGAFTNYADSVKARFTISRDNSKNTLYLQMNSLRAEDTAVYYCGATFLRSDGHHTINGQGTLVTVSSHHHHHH
# [3] = target: T3, EpCAM H90.2 Mask27 L040 (EpCAM targeting ProTriTAC with H90.2); experiment: as above
# T3 construct: trispecific prodrug; also called H90.2 ProTriTAC (L040)
# T3 sequence (chain, as listed by the source): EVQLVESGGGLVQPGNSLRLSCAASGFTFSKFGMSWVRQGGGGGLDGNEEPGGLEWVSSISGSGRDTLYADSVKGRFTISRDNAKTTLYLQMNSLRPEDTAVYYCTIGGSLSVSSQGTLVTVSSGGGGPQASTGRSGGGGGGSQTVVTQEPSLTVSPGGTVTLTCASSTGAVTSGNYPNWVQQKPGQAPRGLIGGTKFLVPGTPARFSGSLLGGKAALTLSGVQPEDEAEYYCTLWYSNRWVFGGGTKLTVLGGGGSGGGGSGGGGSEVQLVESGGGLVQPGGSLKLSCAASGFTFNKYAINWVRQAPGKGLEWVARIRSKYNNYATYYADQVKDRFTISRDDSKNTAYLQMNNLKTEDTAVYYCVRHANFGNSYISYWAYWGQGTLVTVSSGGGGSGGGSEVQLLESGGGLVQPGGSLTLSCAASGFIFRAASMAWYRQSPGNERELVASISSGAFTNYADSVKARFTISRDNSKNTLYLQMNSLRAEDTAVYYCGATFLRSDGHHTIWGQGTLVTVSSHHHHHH
binder,measurement,setting,value
B1,binding result,[1],no binding
same,Kd,[2],0.26 nM
same,Kd,[3],0.15 nM
